# From paper PMC12666658
# Assays:
# [1] = target: CD3 receptor on T cells (human PBMCs) (human (endogenous in PBMCs)) (UniProt P07766)
# [2] = target: CD3 receptor on T cells (human PBMCs) (human (endogenous in PBMCs)) (UniProt P07766); remark: listed apart in the source
# [3] = target: CD3 receptor on T cells (human PBMCs) (human (endogenous in PBMCs)) (UniProt P07766); remark: listed apart in the source
# Chain of UniProt P07766 (P07766 23-207): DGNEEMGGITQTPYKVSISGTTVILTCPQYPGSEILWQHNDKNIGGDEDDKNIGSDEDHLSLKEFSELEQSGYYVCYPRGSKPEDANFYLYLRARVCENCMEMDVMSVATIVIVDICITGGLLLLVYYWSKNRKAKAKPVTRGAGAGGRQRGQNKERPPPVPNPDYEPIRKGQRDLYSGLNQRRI
substance,measurement,setting,value
SadP-scFv UCHT1 lectibody (from UniProt G5DSS1),"specific lysis of Gb3+ Ramos cells by PBMCs (E:T 5:1), bioluminescence-based cytotoxicity assay, 0.2–10 nM lectibody, 7 to 48 hours; highest at 10 nM and 48 hours",[1],65%
same,"fold increase of CD71 on CD3+ T cells (PBMCs co-cultured with Gb3+ Ramos cells), 5 or 10 nM lectibody, 24 and 48 hours; highest at 10 nM and 48 hours",[2],25 fold
same,"fold increase of CD69 on CD3+ T cells (PBMCs co-cultured with Gb3+ Ramos cells), 5 or 10 nM lectibody, 18 and 24 hours; highest at 10 nM and 24 hours",[3],5 to 8 fold
